# Reference: the supplement of paper PMC9732359
# ± gives the uncertainty stated by the source.
# Assay: protein stability index of a GFP-peptide fusion (yeast GPS) (PSI 1-4); higher = more stable; sorted into four equal gates, so the index is relative within each strain
# Settings: pdr5∆
# In short: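 Mid-log yeast cultures in leucine-free medium, carrying a pooled plasmid library, were sorted into four equal gates by their GFP/Cherry fluorescence ratio. Each plasmid expressed Cherry along with GFP fused upstream of a tiled 17-residue yeast protein peptide. Plasmids recovered from each gate were PCR-amplified and Illumina-sequenced, with reads assigned to strains by barcodes. The protein stability index was obtained by summing each gate's read frequency weighted by its gate number.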
row,Sequence,protein stability index
1,NEPTQKDEEETEYFENK [DSN1],3.54 ± 0.23
2,NERLEINQEKPVKLDEN [SIR4],3.05 ± 0.12

# Same assay, conditions: san1∆
row,Sequence,protein stability index
1,LYPSFKPIYKDTRFGGR [SSN2],3.1 ± 0.047
2,LYSYLIKENFFERIMIL [YJL039C/NUP192],1.49 ± 0.2
3,MAAQKSFRIKQKMAKAK [RPL39],2.25 ± 0.083
4,MAFEASAAAAGNRNSSS [BRR2],2.35 ± 0.12
5,MAGLSFDNYQRNNFLAE [PUP1],3.29 ± 0.084
6,MAHFKEYQVIGRRLPTE [RPL20A],1.4 ± 0.1
7,MAKFLKAGKVAVVVRGR [RPL27A],1.57 ± 0.14
8,MAKRVADAQIQRETYDS [YLR335W/NUP2],2.08 ± 0.12
9,MANDLVQARDNSQVFGV [RPS14B],2.81 ± 0.049
10,MANLSQIYTQRAYMRPL [SCL1],1.47 ± 0.12
11,MAREHAPSIIFMDEIDS [RPT6],2.54 ± 0.099
12,MARYGATSTNPAKSASA [RPL17A],2.31 ± 0.09
13,MAYTSHLSSKTGLHFGR [QCR10],2.69 ± 0.089
14,MDDEEWRSKRIEQLFPV [RPC53],2.89 ± 0.049
15,MDLFMSTLGDCLGIKDE [GAL11],3.38 ± 0.16
16,MDNKTPVTLAKVIKVLG [RPS28A],1.16 ± 0.27
17,MDRTQTFIKDCLFTKCL [POP4],1.7 ± 0.1
18,MDWLDNWGRKEHDLLRQ [ITC1],3.48 ± 0.13
19,MERLQRLMMNSKVGSAD [RPN11],3.42 ± 0.097
20,MEYLKSSKSLDLNTRIS [RPN5],2.34 ± 0.063
21,MGGIREKKAEYFAKLRE [RPP0],3.13 ± 0.061
22,MGGPKQKGITSYAVSPY [QCR8],2.25 ± 0.12
23,MGGVSALRGMFKDRFKD [FAS2],3.41 ± 0.059
24,MGIVQDTLCGIRKLTLR [RPO21],1.87 ± 0.068
25,MGKKTFREWQYFKLSIT [POP8],1.47 ± 0.099

row,Sequence,protein stability index
1,MGKRVDFSARTVISGDP [RPO21],3.08 ± 0.14
2,MGQGLCNNINKGLKEND [BRR2],3.2 ± 0.071
3,MHDSNLQNNSDSESDSD [SKP1],3.06 ± 0.056
4,MHKQLAYILAAQKTSFE [RPN1],2.29 ± 0.067
5,MHRPVHFLQFSELAGDE [PRP8],2.88 ± 0.059
6,MIIDEGHRMKNAQSKLS [SNF2],1.67 ± 0.089
7,MITKRILEVGALASIQT [RPN12],2.14 ± 0.22
8,MIVPVRCFSCGKVVGDK [RPB10],2.13 ± 0.1
9,MKYAVSKTSENKVSNTV [SIR2],3.15 ± 0.091
10,MLRRHAAPPSTNFEILN [DIS3],1.71 ± 0.18
11,MMVNISVLISIPLDNYD [PCI8],1.72 ± 0.065
12,MNYLLDNKINEIKLLEI [CSI1],2.67 ± 0.069
13,MPNDNKTPNRSSTPKFT [SIR4],3 ± 0.062
14,MPQSFTSIARIGDYILK [QCR7],3.04 ± 0.15
15,MPYTINELLEMVGLASG [BRR2],2.58 ± 0.052
16,MQAIADSFSVPNRLVKE [PRE2],3.03 ± 0.14
17,MQKHGYIGEFEYIDDHR [RPS22A],2.93 ± 0.07
18,MQSTSPAVKQWDLLPEP [SWI1],1.36 ± 0.27
19,MRELGLIQSTEFPSITS [YOR098C/NUP1],2.21 ± 0.12
20,MRILPRETDPLVYNMTS [RPT4],3.18 ± 0.06
21,MSAAPVQDKDTLSNAER [GAL11],3.34 ± 0.073
22,MSAKAQNPMRDLKIEKL [RPL11A],3.46 ± 0.11
23,MSAPEAQQQKRGGFGGR [RPS2],3.28 ± 0.1
24,MSASNANDFQLTIVTCK [SRB8],2.42 ± 0.043
25,MSDFQKEKVEEQEQQQQ [RPS20],3.16 ± 0.08

row,Sequence,protein stability index
1,MSEQQWREQLRNRDIAL [ROX3],3 ± 0.054
2,MSGGKGGKAGSAAKASQ [HTA1],2.83 ± 0.1
3,MSKIQVAHSSRLANLID [SMB1],1.09 ± 0.14
4,MSPFLRKVVKPSSLNSD [SRB4],2.03 ± 0.081
5,MSQAVNAKKRVFKTHSY [RPS15],2.19 ± 0.11
6,MSSNTSSVMSSPRVEKR [YOR098C/NUP1],3.15 ± 0.078
7,MSTDVAAAQAQSKIDLT [SEM1],2.98 ± 0.079
8,MSTESALSYAALILADS [RPP1A],1.72 ± 0.073
9,MTAMRLMLKKLKNSIMS [YML031W/NDC1],2.16 ± 0.12
10,MTAVRRSTRIRTKSQVI [IRR1],3.42 ± 0.077
11,MTIDDSNRLLMDVDQFD [YJR042W/NUP85],3.25 ± 0.098
12,MTLEDNNVTSNPSEFTP [SSN2],2.92 ± 0.068
13,MTTPQNISSSQQLLPAP [DSN1],2.74 ± 0.036
14,MTTQQEEQRSDTKNSKS [ISW2],2.73 ± 0.26
15,MTVAHLIECLLSKVAAL [RPB2],1.84 ± 0.1
16,MVEGDSYVETLDSMIEL [MED1],3.33 ± 0.051
17,MVGLASGNDSMAGKVLI [BRR2],3.21 ± 0.091
18,MVNIGLHNLNEYQIVYY [RGR1],2.11 ± 0.11
19,MVVQKYKLSTVVLRLYL [GRR1],1.38 ± 0.081
20,MWSVARAGQRGYHSRTS [RPL3],3.16 ± 0.069
21,NAFRKEELLLKDLEIRK [GAL11],3.18 ± 0.079
22,NAGPNSNIPNLLRNLES [YDL088C/ASM4],2.23 ± 0.073
23,NANDETTAVEDEDDDLD [RPB4],3.25 ± 0.093
24,NATLQALYRVNDLRDMI [UBP6],3.03 ± 0.062
25,NAVISHANAAAVYFADT [SIN4],2.06 ± 0.051

row,Sequence,protein stability index
1,NAVLGLGDMAVCFNNLV [YCS4],2.61 ± 0.098
2,NDEGVWDLVDERTKQRT [PRP8],3.35 ± 0.13
3,NDIPQTESPLKTVDSSI [SSN2],2.81 ± 0.061
4,NDLIVNYEDLATTQAAS [BRN1],3.34 ± 0.046
5,NDNNSPHTPVTRKGYIP [YLR018C/POM34],2.85 ± 0.078
6,NDQDMFTIVSLVQLKKF [YML103C/NUP188],1.93 ± 0.17
7,NDQVEKDAEDETSSDGS [RPN1],2.04 ± 0.17
8,NDSNPSFSFSIPSKNTP [YLR335W/NUP2],2.58 ± 0.046
9,NDTLPDEISPELLSKYK [SNU114],3.03 ± 0.064
10,NDYLEKHSVTEYIFEAH [CDC53],3.12 ± 0.094
11,NEAALVVNITHHELVPK [RPB5],3.14 ± 0.062
12,NECQRLQNIVMDCTKEE [YIL149C/MLP2],3.66 ± 0.2
13,NEDDLTVKLTEIVWTSS [RPO31],3.01 ± 0.074
14,NEEAEARRLKNRAARDR [RPL19A],2.89 ± 0.19
15,NEHSTSYTFRSEKGLLS [FAS1],2.7 ± 0.042
16,NEKKTETNAKPFSFSSA [YLR335W/NUP2],3.33 ± 0.041
17,NEKLADLGLEKEFQSVD [RPC53],2 ± 0.17
18,NEKRYATASAIAATAVA [RPL4A],1.74 ± 0.14
19,NEKVAVMRNTYNTRKNA [GAL11],2.18 ± 0.072
20,NELLEMVGLASGNDSMA [BRR2],3.11 ± 0.077
21,NELLKCKDDVQLQKILE [MTW1],3.05 ± 0.035
22,NEPAARLGSEADAKAFL [FAS2],3.35 ± 0.042
